{"source": "paper doi:10.1101/2023.08.25.554913", "about": "(bioRxiv, 2023)", "proteins": {"B1": {"name": "PfuAmyGT (PF0272) from Pyrococcus furiosus, wild type (enzyme, UniProt P49067 1-649, looked up)", "chain": "MGDKINFIFGIHNHQPLGNFGWVFEEAYEKCYWPFLETLEEYPNMKVAIHTSGPLIEWLQDNRPEYIDLLRSLVKRGQVEIVVAGFYEPVLASIPKEDRIEQIRLMKEWAKSIGFDARGVWLTERVWQPELVKTLKESGIDYVIVDDYHFMSAGLSKEELYWPYYTEDGGEVIAVFPIDEKLRYLIPFRPVDKVLEYLHSLIDGDESKVAVFHDDGEKFGIWPGTYEWVYEKGWLREFFDRISSDEKINLMLYTEYLEKYKPRGLVYLPIASYFEMSEWSLPAKQARLFVEFVNELKVKGIFEKYRVFVRGGIWKNFFYKYPESNYMHKRMLMVSKLVRNNPEARKYLLRAQCNDAYWHGLFGGVYLPHLRRAIWNNLIKANSYVSLGKVIRDIDYDGFEEVLIENDNFYAVFKPSYGGSLVEFSSKNRLVNYVDVLARRWEHYHGYVESQFDGVASIHELEKKIPDEIRKEVAYDKYRRFMLQDHVVPLGTTLEDFMFSRQQEIGEFPRVPYSYELLDGGIRLKREHLGIEVEKTVKLVNDGFEVEYIVNNKTGNPVLFAVELNVAVQSIMESPGVLRGKEIVVDDKYAVGKFALKFEDEMEVWKYPVKTLSQSESGWDLIQQGVSYIVPIRLEDKIRFKLKFEEASG"}}, "target": "the molecule itself", "test": "SEC", "data": [{"protein": "B1", "values": [{"measurement": "stoichiometry N", "result": 2}]}]}
